The values that follow come from patent publication US20170052176A1.

In experiment [1] the target is CD8 on human CD8+ cells (PBMC) (human). Kind of experiment: capture of PBMC pre-incubated with 1.5 ug anti-CD8 Fab-TST / multimerized soluble Strep-Tactin on Biotin-agarose, elution with D-biotin; flow cytometry with CD8-PE and CD3-APC [continued].
The target is the same in experiment [2]. Kind of experiment: capture of unlabelled PBMC on a pipette tip of Strep-Tactin-agarose loaded with 1.5 ug anti-CD8 Fab-TST; flow cytometry with CD8-PE and CD3-APC; 7,6% before selection [continued].
Experiment [3] shares this target. Kind of experiment: capture of unlabelled PBMC on a pipette tip of Strep-Tactin-agarose loaded with 1.5 ug anti-CD8 Fab-TST, elution with D-biotin; flow cytometry with CD8-PE and CD3-APC; 7,6% before selection [continued].
Experiment [4] shares this target. Nature of the experiment: capture of PBMC pre-incubated with 1.5 ug anti-CD8 Fab-TST / multimerized soluble Strep-Tactin on Biotin-agarose; flow cytometry with CD8-PE and CD3-APC.

CD8 on human CD8+ cells (PBMC) (human), sequence (P01732 22-235): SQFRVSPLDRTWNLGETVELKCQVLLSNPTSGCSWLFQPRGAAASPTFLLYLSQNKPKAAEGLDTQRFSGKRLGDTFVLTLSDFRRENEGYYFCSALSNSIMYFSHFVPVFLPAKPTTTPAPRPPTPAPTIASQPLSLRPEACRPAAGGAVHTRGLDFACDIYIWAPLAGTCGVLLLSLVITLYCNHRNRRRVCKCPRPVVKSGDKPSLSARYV

With “anti-CD8 Fab-fragment carrying the Twin-Strep-Tag at the C-terminus of the heavy chain (catalogue number 6-8003, IBA GmbH)”, the Q1-UL, % CD8 PE-positive cells in the positive (biotin-eluted) fraction amounted to 72.4% in experiment [1] and 58.7% in experiment [3]. For the same substance, the values for the Q1-UL, % CD8 PE-positive cells in the wash through fraction in experiment [2] and in experiment [4] were 2.4% and 0.9%, respectively.
